Laboratory results reported in patent US20250277030A1, “ANTI-NAPI2B ANTIBODIES AND METHODS OF USE” (Zymeworks BC Inc., priority 2022, published 2025).

Tests used:
[1] = target: T1, NaPi2b expressed on IGROV-1 cells (Homo sapiens, UniProt O95436); assay: Cellular binding of bivalent antibodies to IGROV-1 cells by flow cytometry (Example 13); details: IGROV-1, 24 hours at 4° C.; NB = no cellular binding
T1 construct: IGROV-1 cells express endogenous NaPi2b at a high level; endogenous in cells; host or cells: IGROV-1
T1 sequence (O95436 1-690): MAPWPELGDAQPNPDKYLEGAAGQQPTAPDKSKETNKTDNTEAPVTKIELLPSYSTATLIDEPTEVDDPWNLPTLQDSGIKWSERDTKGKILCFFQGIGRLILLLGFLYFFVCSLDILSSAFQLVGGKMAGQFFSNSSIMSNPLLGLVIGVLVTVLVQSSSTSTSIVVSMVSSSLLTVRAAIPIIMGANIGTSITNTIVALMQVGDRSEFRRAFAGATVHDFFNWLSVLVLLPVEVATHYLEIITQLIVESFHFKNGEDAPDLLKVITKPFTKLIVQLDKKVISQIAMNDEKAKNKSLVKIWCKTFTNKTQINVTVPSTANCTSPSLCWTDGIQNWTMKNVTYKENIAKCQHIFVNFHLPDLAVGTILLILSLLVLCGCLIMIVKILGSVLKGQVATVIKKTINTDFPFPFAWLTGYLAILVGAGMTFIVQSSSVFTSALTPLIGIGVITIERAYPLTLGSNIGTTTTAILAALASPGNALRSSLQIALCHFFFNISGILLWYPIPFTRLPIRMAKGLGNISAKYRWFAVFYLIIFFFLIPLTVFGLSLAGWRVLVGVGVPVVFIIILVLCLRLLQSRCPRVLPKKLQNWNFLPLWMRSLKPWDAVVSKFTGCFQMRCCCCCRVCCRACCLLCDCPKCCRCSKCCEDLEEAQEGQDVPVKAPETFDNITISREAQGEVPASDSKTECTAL
Description: IGROV-1 cells express endogenous NaPi2b at a high level.
Briefly, cells were seeded at 50,000 cells/well in conical-bottom 96-well plates and treated with test antibody for 24 hours at 4° C. to prevent internalization. Palivizumab (anti-RSV antibody, v22277) was included as a negative control. […] Following incubation, cells were washed and stained with anti-Human IgG Fc AF647 conjugate (Jackson Immuno Research Labs, West Grove, PA; Cat. No. 109-605-098) at 4° C. for 30 min. Following incubation and washing, fluorescence was detected by flow cytometry on a BD LSRFortessa™ Cell Analyzer (BD Biosciences, Franklin Lake, NJ) with 1,000 minimum events collected per well. The AF647/APC-A GeoMean (fluorescence signal geometric mean, proportional to anti-Human AF647 binding) was calculated for the live cell population using FlowJo™ Version 10.8.1 (BD Biosciences, Franklin Lake, NJ) and plotted for each test antibody using GraphPad Prism Version 9 (GraphPad Software, San Diego, CA).

[2] = Thermal stability by differential scanning calorimetry (DSC); type: physicochemical; details: 0.4 mg/mL in PBS, scan 20° C. to 100° C. at 60° C./hr
Description: The thermal stability of the humanized antibody variants was assessed by differential scanning calorimetry (DSC) as described below.
400 μL of purified samples primarily at concentrations of 0.4 mg/mL in PBS were used for DSC analysis with a VP-Capillary DSC (Malvern Panalytical Inc., Westborough, MA). At the start of each DSC run, 5 buffer blank injections were performed to stabilize the baseline, and a buffer injection was placed before each sample injection for referencing. Each sample was scanned from 20° C. to 100° C. at a 60° C./hr rate, with low feedback, 8 sec filter, 3 min pre-scan thermostat, and 70 psi nitrogen pressure. The resulting thermograms were referenced and analyzed using Origin 7 software (OriginLab Corporation, Northampton, MA) to determine melting temperature (Tm) as an indicator of thermal stability.

Row | Molecule | Bmax (MFI) [1] | Curve Hill Slope (h) [1] | Fab Tm [2]
1 | v29451: humanized anti-NaPi2b IgG1/kappa antibody H2L3; VH SEQ ID NO:25, VL SEQ ID NO:30 (antibody, V domains shown, v29451, v29455, v29459 VH (H2); v29449, v29450, v29451, v29452 VL (L3)) VH: QVQLVQSGAEVKKPGASVKVSCKASGFTFTSYNVHWVRQAPGQGLEWIAAISPGNGDLSYAQKFQGRVTMTVDTSTSTVYMELSSLRSEDTAVYYCARGRTGMGAVDYWGQGTLVTVSS VL: DVQMTQSPSSLSASVGDRVTITCRASQDVYSYLNWYQQKPGKAVKLLIYYTSRLQSGVPSRFSGSGSGTDYTLTISSLQPEDIATYYCQQYNIFPWTFGQGTKLEIK | 46,170 MFI | 1.1 | 83.0 °C
2 | v29454: humanized anti-NaPi2b IgG1/kappa antibody H3L2; VH SEQ ID NO:26, VL SEQ ID NO:29 (antibody, V domains shown, v29450, v29454, v29458 VH (H3); v29453, v29454, v29455, v29456 VL (L2)) VH: QVQLVQSGAEVKKPGASVKMSCKASGFTFTSYNVHWVRQAPGQGLEWIAAISPGNGDLSYAQKFQGRATLTVDTSTSTAYMELSSLRSEDTAVYYCARGRTGMGAVDYWGQGTLVTVSS VL: DVQMTQSPSSLSASVGDRVTITCRASQDVYSYLNWYQQKPGKAVKLLIYYTSRLQSGVPSRFSGSGSGTDYTLTISSLQPEDFATYYCQQYNIFPWTFGQGTKLEIK | 42,278 MFI | 1.0 | 79.7 °C
3 | v29460: humanized anti-NaPi2b IgG1/kappa antibody H1L1; VH SEQ ID NO:24, VL SEQ ID NO:28 (antibody, V domains shown, v29452, v29456, v29460 VH (H1); v29457, v29458, v29459, v29460 VL (L1)) VH: QVQLVQSGAEVKKPGASVKVSCKASGFTFTSYNVHWVRQAPGQGLEWMGAISPGNGDLSYAQKFQGRVTMTRDTSTSTVYMELSSLRSEDTAVYYCARGRTGMGAVDYWGQGTLVTVSS VL: DIQMTQSPSSLSASVGDRVTITCRASQDVYSYLNWYQQKPGKAPKLLIYYTSRLQSGVPSRFSGSGSGTDFTLTISSLQPEDFATYYCQQYNIFPWTFGQGTKLEIK | 40,071 MFI | 1.2 | 80.3 °C
4 | v29450: humanized anti-NaPi2b IgG1/kappa antibody H3L3; VH SEQ ID NO:26, VL SEQ ID NO:30 (antibody, V domains shown, v29450, v29454, v29458 VH (H3); v29449, v29450, v29451, v29452 VL (L3)) VH: QVQLVQSGAEVKKPGASVKMSCKASGFTFTSYNVHWVRQAPGQGLEWIAAISPGNGDLSYAQKFQGRATLTVDTSTSTAYMELSSLRSEDTAVYYCARGRTGMGAVDYWGQGTLVTVSS VL: DVQMTQSPSSLSASVGDRVTITCRASQDVYSYLNWYQQKPGKAVKLLIYYTSRLQSGVPSRFSGSGSGTDYTLTISSLQPEDIATYYCQQYNIFPWTFGQGTKLEIK | 43,809 MFI | 1.2 | 81.0 °C
5 | v29453: humanized anti-NaPi2b IgG1/kappa antibody H4L2; VH SEQ ID NO:27, VL SEQ ID NO:29 (antibody, V domains shown, v29449, v29453, v29457 VH (H4); v29453, v29454, v29455, v29456 VL (L2)) VH: QVQLVQSGAEVKKPGASVKMSCKASGFTFTSYNVHWVRQAPGQGLEWIAAISPGNGDLSYAQKFQGRATLTVDRSTSTAYMELSSLRSEDTAVYYCARGRTGMGAVDYWGQGTLVTVSS VL: DVQMTQSPSSLSASVGDRVTITCRASQDVYSYLNWYQQKPGKAVKLLIYYTSRLQSGVPSRFSGSGSGTDYTLTISSLQPEDFATYYCQQYNIFPWTFGQGTKLEIK | 44,480 MFI | 1.2 | 78.9 °C
6 | v29459: humanized anti-NaPi2b IgG1/kappa antibody H2L1; VH SEQ ID NO:25, VL SEQ ID NO:28 (antibody, V domains shown, v29451, v29455, v29459 VH (H2); v29457, v29458, v29459, v29460 VL (L1)) VH: QVQLVQSGAEVKKPGASVKVSCKASGFTFTSYNVHWVRQAPGQGLEWIAAISPGNGDLSYAQKFQGRVTMTVDTSTSTVYMELSSLRSEDTAVYYCARGRTGMGAVDYWGQGTLVTVSS VL: DIQMTQSPSSLSASVGDRVTITCRASQDVYSYLNWYQQKPGKAPKLLIYYTSRLQSGVPSRFSGSGSGTDFTLTISSLQPEDFATYYCQQYNIFPWTFGQGTKLEIK | 40,941 MFI | 1.2 | 83.1 °C
7 | v29449: humanized anti-NaPi2b IgG1/kappa antibody H4L3; VH SEQ ID NO:27, VL SEQ ID NO:30 (antibody, V domains shown, v29449, v29453, v29457 VH (H4); v29449, v29450, v29451, v29452 VL (L3)) VH: QVQLVQSGAEVKKPGASVKMSCKASGFTFTSYNVHWVRQAPGQGLEWIAAISPGNGDLSYAQKFQGRATLTVDRSTSTAYMELSSLRSEDTAVYYCARGRTGMGAVDYWGQGTLVTVSS VL: DVQMTQSPSSLSASVGDRVTITCRASQDVYSYLNWYQQKPGKAVKLLIYYTSRLQSGVPSRFSGSGSGTDYTLTISSLQPEDIATYYCQQYNIFPWTFGQGTKLEIK | 44,460 MFI | 1.3 | 80.0 °C
8 | v29455: humanized anti-NaPi2b IgG1/kappa antibody H2L2; VH SEQ ID NO:25, VL SEQ ID NO:29 (antibody, V domains shown, v29451, v29455, v29459 VH (H2); v29453, v29454, v29455, v29456 VL (L2)) VH: QVQLVQSGAEVKKPGASVKVSCKASGFTFTSYNVHWVRQAPGQGLEWIAAISPGNGDLSYAQKFQGRVTMTVDTSTSTVYMELSSLRSEDTAVYYCARGRTGMGAVDYWGQGTLVTVSS VL: DVQMTQSPSSLSASVGDRVTITCRASQDVYSYLNWYQQKPGKAVKLLIYYTSRLQSGVPSRFSGSGSGTDYTLTISSLQPEDFATYYCQQYNIFPWTFGQGTKLEIK | 41,917 MFI | 1.1 | 81.5 °C
9 | v29458: humanized anti-NaPi2b IgG1/kappa antibody H3L1; VH SEQ ID NO:26, VL SEQ ID NO:28 (antibody, V domains shown, v29450, v29454, v29458 VH (H3); v29457, v29458, v29459, v29460 VL (L1)) VH: QVQLVQSGAEVKKPGASVKMSCKASGFTFTSYNVHWVRQAPGQGLEWIAAISPGNGDLSYAQKFQGRATLTVDTSTSTAYMELSSLRSEDTAVYYCARGRTGMGAVDYWGQGTLVTVSS VL: DIQMTQSPSSLSASVGDRVTITCRASQDVYSYLNWYQQKPGKAPKLLIYYTSRLQSGVPSRFSGSGSGTDFTLTISSLQPEDFATYYCQQYNIFPWTFGQGTKLEIK | 40,793 MFI | 1.1 | 81.6 °C
10 | v29457: humanized anti-NaPi2b IgG1/kappa antibody H4L1; VH SEQ ID NO:27, VL SEQ ID NO:28 (antibody, V domains shown, v29449, v29453, v29457 VH (H4); v29457, v29458, v29459, v29460 VL (L1)) VH: QVQLVQSGAEVKKPGASVKMSCKASGFTFTSYNVHWVRQAPGQGLEWIAAISPGNGDLSYAQKFQGRATLTVDRSTSTAYMELSSLRSEDTAVYYCARGRTGMGAVDYWGQGTLVTVSS VL: DIQMTQSPSSLSASVGDRVTITCRASQDVYSYLNWYQQKPGKAPKLLIYYTSRLQSGVPSRFSGSGSGTDFTLTISSLQPEDFATYYCQQYNIFPWTFGQGTKLEIK | 44,539 MFI | 1.0 | 80.5 °C
